# Assay results published in patent US11629364B2, “Methods for synthesizing anticoagulant polysaccharides” (OPTIMVIA, LLC, priority 2019, dated 2023).
# B1: SEQ ID NO: 4: engineered aryl sulfate-dependent NST enzyme, mutant of N-sulfotransferase domain of human NDST (protein)
# chain: MSEEKDPLWQDPCEDKRHKDIWSKEKTCDRFPKLLIIGPSKTGAFLLTHFLGMHPDLSSNYPSSETGHSIQFFNGHNYHKGIDWYMEFFPIPSNTTSDFYFETSSNYFDSEVAPRRAAALLPKAKVLTILINPADRAYSWYQHQRAHDDPVALKYTFHEVITAGSDASSKLRALQNRCLVPGWYATHIERWLSAYHANQILVLDGKLLRTEPAKVMDMVQKFLGVTNTIDYHKTLAFDPKKGFWCQLLEGGKTKCHGKRWGRKYPEMDLDSRAFLKDYYRDHNIELSKLLYKMGQTLPTWLREDLQNTR
# modifications: Amino acid sequence encoding for engineered arylsulfate-dependent N-sulfotransferase variant 2
# notes: engineered aryl sulfate-dependent NST enzyme, mutant of N-sulfotransferase domain of human NDST
# B2: SEQ ID NO: 10: engineered aryl sulfate-dependent NST enzyme, mutant of N-sulfotransferase domain of human NDST (protein)
# chain: MSEEKDPLWQDPCEDKRHKDIWSKEKTCDRFPKLLIIGPHKTGVHALYLFLGMHPDLSSNYPSSETGNHIGFFGGHNYHKGIDWYMEFFPIPSNTTSDFYFEKSAWYFDSEVAPRRAAALLPKAKVLTILINPADRAYSWYQHQRAHDDPVALKYTFHEVITAGSDASSKLRALQNRCLVPGWYATHIERWLSAYHANQILVLDGKLLRTEPAKVMDMVQKFLGVTNTIDYHKTLAFDPKKGFWCQLLEGGKTKCLGKSVGRKYPEMDLDSRAFLKDYYRDHNIELSKLLYKMGQTLPTWLREDLQNTR
# modifications: Amino acid sequence encoding for engineered arylsulfate-dependent N-sulfotransferase variant 5
# notes: as for B1
# B3: SEQ ID NO: 8: engineered aryl sulfate-dependent NST enzyme, mutant of N-sulfotransferase domain of human NDST (protein)
# chain: MSEEKDPLWQDPCEDKRHKDIWSKEKTCDRFPKLLIIGPHGTGGHALYLFLGMHPDLSSNYPSSETFLSIQFFNGHNYHKGIDWYMEFFPIPSNTTSDFYFEHSGNYFDSEVAPRRAAALLPKAKVLTILINPADRAYRAYVWQRAHDDPVALKYTFHEVITAGSDASSKLRALQNRCLVPGWYATHIERWLSAYHANQILVLDGKLLRTEPAKVMDMVQKFLGVTNTIDYHKTLAFDPKKGFWCQLLEGGKTKCLGKSLGSKYPEMDLDSRAFLKDYYRDHNIELSKLLYKMGQTLPTWLREDLQNTR
# modifications: Amino acid sequence encoding for engineered arylsulfate-dependent N-sulfotransferase variant 4
# notes: as for B1
# B4: SEQ ID NO: 6: engineered aryl sulfate-dependent NST enzyme, mutant of N-sulfotransferase domain of human NDST (protein)
# chain: MSEEKDPLWQDPCEDKRHKDIWSKEKTCDRFPKLLIIGPHGTGGHALYLFLGMHPDLSSNYPSSETGEEIQFFNGHNYHKGIDWYMEFFPIPSNTTSDFYFEKSANYFDSEVAPRRAAALLPKAKVLTILINPADRAYSWYQAQRAHDDPVALKYTFHEVITAGSDASSKLRALQNRCLVPGWYATHIERWLSAYHANQILVLDGKLLRTEPAKVMDMVQKFLGVTNTIDYHKTLAFDPKKGFWCQLLEGGKTKCGGKHLGRKYPEMDLDSRAFLKDYYRDHNIELSKLLYKMGQTLPTWLREDLQNTR
# modifications: Amino acid sequence encoding for engineered arylsulfate-dependent N-sulfotransferase variant 3
# notes: as for B1
# B5: SEQ ID NO: 2: engineered aryl sulfate-dependent NST enzyme, mutant of N-sulfotransferase domain of human NDST (protein)
# chain: MSEEKDPLWQDPCEDKRHKDIWSKEKTCDRFPKLLIIGPQKTGAWALYHFLGMHPDLSSNYPSSETHGSIQFFNGHNYHKGIDWYMEFFPIPSNTTSDFYFEKSANYFDSEVAPRRAAALLPKAKVLTILINPADRAYSWYQHQRAHDDPVALKYTFHEVITAGSDASSKLRALQNRCLVPGWYATHIERWLSAYHANQILVLDGKLLRTEPAKVMDMVQKFLGVTNTIDYHKTLAFDPKKGFWCQLLEGGKTKCLGKSHGRKYPEMDLDSRAFLKDYYRDHNIELSKLLYKMGQTLPTWLREDLQNTR
# modifications: Amino acid sequence encoding for engineered arylsulfate-dependent N-sulfotransferase variant 1
# notes: as for B1
# B6: SEQ ID NO: 12: engineered aryl sulfate-dependent NST enzyme, mutant of N-sulfotransferase domain of human NDST (protein)
# chain: MSEEKDPLWQDPCEDKRHKDIWSKEKTCDRFPKLLIIGPAKTGAWLLHHFLGMHPDLSSNYPSSETHSSIQFFNGHNYHKGIDWYMEFFPIPSNTTSDFYFETSANYFDSEVAPRRAAALLPKAKVLTILINPADRAYSWYQHQRAHDDPVALKYTFHEVITAGSDASSKLRALQNRCLVPGWYATHIERWLSAYHANQILVLDGKLLRTEPAKVMDMVQKFLGVTNTIDYHKTLAFDPKKGFWCQLLEGGKTKCAHKGLGRKYPEMDLDSRAFLKDYYRDHNIELSKLLYKMGQTLPTWLREDLQNTR
# modifications: Amino acid sequence encoding for engineered arylsulfate-dependent N-sulfotransferase variant 6
# notes: as for B1
# B7: SEQ ID NO: 35: mutant of N-sulfotransferase domain of pig NDST carrying the SEQ ID NO: 2 mutations (protein)
# chain: MSEEKDPLWQDPCEDKRHKDIWSKEKTCDRFPKLLIIGPQKTGAWALYHFLGLHPDLSSNYPSSETHGSIQFFNGHNYHKGIDWYMDFFPIPSNTTSDFYFEKSANYFDSDVAPRRAAALLPKAKVLTILINPADRAYSWYQHQRAHDDPAALRYTFHEVITAGPDASLKLRALQNRCLVPGWYATHLERWLGAFHANQILVLDGKLLRTEPARVMDTVQKFLGVTNTIDYHKTLAFDPKKGFWCQLLEGGKTKCLGRSHGRKYPDMDPDSRAFLRDYYRDHNIELSKLLYKMGQTLPTWLREELQNTR
# modifications: Amino acid sequence encoding for engineered arylsulfate-dependent N-sulfotransferase variant 9
# B8: SEQ ID NO: 36: mutant of N-sulfotransferase domain of pig NDST carrying the SEQ ID NO: 4 mutations (protein)
# chain: MSEEKDPLWQDPCEDKRHKDIWSKEKTCDRFPKLLIIGPSKTGAFLLTHFLGLHPDLSSNYPSSETGHSIQFFNGHNYHKGIDWYMDFFPIPSNTTSDFYFETSSNYFDSDVAPRRAAALLPKAKVLTILINPADRAYSWYQHQRAHDDPAALRYTFHEVITAGPDASLKLRALQNRCLVPGWYATHLERWLGAFHANQILVLDGKLLRTEPARVMDTVQKFLGVTNTIDYHKTLAFDPKKGFWCQLLEGGKTKCHGRRWGRKYPDMDPDSRAFLRDYYRDHNIELSKLLYKMGQTLPTWLREELQNTR
# modifications: Amino acid sequence encoding for engineered arylsulfate-dependent N-sulfotransferase variant 10
# Test: NST activity: N-sulfated products detected by SAX-HPLC after lyase digestion
# Type: biochemical
# Details: PNS or NCS as sulfo donor, N-deacetylated heparosan acceptor, 37° C. overnight
# Experimental: A study was conducted in accordance with embodiments of the present disclosure to confirm NST activity of enzymes comprising the amino acid sequence of SEQ ID NO: 2, SEQ ID NO: 4, SEQ ID NO: 6, SEQ ID NO: 8, SEQ ID NO: 10, or SEQ ID NO: 12 by detecting the presence of N-sulfated polysaccharide products formed as a result of their sulfotransfer reaction, using mass spectrometry (MS). Each engineered enzyme was purified according to the procedure of Example 1. Sulfotransferase activity was monitored in 100 μL reactions containing 50 μM of enzyme. To each purified protein solution, 20 mg of an aryl sulfate compound (either PNS or NCS) was dissolved in 2 mL of reaction buffer (50 mM IVIES pH 7.0, 2 mM CaCl2)), added to the protein solution, and incubated at 37° C. for 10 min. 2.5 mL of 2 mg/mL solution of N-deacetylated heparosan was added to protein/donor solution and incubated overnight at 37° C. The N-deacetylated heparosan was synthesized according to the protocol described in Balagurunathan, K. et al (eds.) (2015), Glycosaminoglycans: Chemistry and Biology, Methods in Molecular Biology, vol. 1229, DOI 10.1007/978-1-4939-1714-3_2, ©Springer Science+Business Media, New York, pp. 11-19 (section 3.1). To purify the N-sulfated product, the incubated reaction mixture was centrifuged the following day at 5,000×g for 10 min. The filter was washed once with 2 mL water, and centrifuged again. The filtrate was added to a 1K MWCO Dialysis membrane, dialyzed for 2 days in Milli-Q water, with water changes at 1 h, 2 h, 8 h, 16 h, 32 h, and then lyophilized.
# The lyophilized N-sulfated products from each reaction were subsequently digested with a mixture of three carbon-oxygen lyases comprising the amino acid sequences of SEQ ID NO: 30, SEQ ID NO: 31, and SEQ ID NO: 32, which catalyze the β-eliminative cleavage of heparosan-based polysaccharides. Such lyases are available from New England Biolabs, among other chemical and biological commercial entities. 1 μL of each lyase was incubated with 50 μg of the lyophilized sulfated polysaccharide product and the provided digestion buffer, and incubated over 24 hours according to the packaged instructions provided by New England Biolabs with each lyase. After digestion, the lyase enzymes were inactivated by heating to 100° C. for 5 minutes. Samples were centrifuged at 14,000 rpm for 30 minutes before introduction to a strong anion exchange, high performance liquid chromatography (SAX) analysis. SAX analysis was performed on a Dionex Ultimate 3000 LC system interface. Separation was carried out on a 4.6×250 mm Waters Spherisorb analytical column with 5.0 μm particle size at 45° C. Mobile phase solution A was 2.5 mM sodium phosphate, pH 3.5, while mobile phase solution B was 2.5 mM sodium phosphate, pH 3.5, and 1.2 M Sodium perchlorate. After each sample was loaded onto the column, mobile phase solutions were applied to the column at a ratio of 98% mobile phase solution A and 2% mobile phase solution B for five minutes at a flow rate of 1.4 mL/min. After five minutes, a linear gradient of increasing mobile phase solution B was applied until the ratio of mobile phase solution A to mobile phase solution B was 50:50.
row,Molecule,NST sulfotransferase activity with aryl sulfate compounds
1,B1,activity with NCS only
2,B2,activity with NCS only
3,B3,activity with both aryl sulfate compounds
4,B4,activity with both aryl sulfate compounds
5,B5,activity with NCS only
6,B6,activity with PNS only

# Same assay, conditions: procedures of Example 2; expected
row,Molecule,NST activity: N-sulfated products by SAX
1,B7,confirm the presence of N-sulfated polysaccharide products
2,B8,confirm the presence of N-sulfated polysaccharide products
